# Results: patent US20260248972A1, “DUAL RECEPTOR TARGETING RADIOLIGANDS AND USES THEREOF RELATED APPLICATIONS” (priority 2022, published 2026)
# *1 amine or outer side, *2 acyl side, *3 side chain or, on linkers, in order; H or OH if unused. Where a SMILES comes first, the peptide text is derived from it. Bridges are numbered along the chain shown (N, C = ends). Side-chain parts run from the residue outwards. [ ]: non-standard residue; d: D form. The star is where a group is joined. X1 = CC(C)(C)C(=O)CN1C(=O)[C@H](N*)CN(C2CCCCC2)c2ccccc21; DOTA = O=C(O)CN1CCN(CC(=O)O)CCN(CC(=O)*)CCN(CC(=O)O)CC1; 3Abz = Nc1cccc(C(=O)O)c1; CO = O=C([*:1])[*:2]
# Assay: in vivo
# Conditions: BALB/c nude, mouse, in vivo, iv, total radioactivity
# Description: To a 0.5 M NaOAc buffer (20-50 μL, pH=4.5) was added 4 μL of exemplary or comparator compound in DMSO stock solution (2000 μM) and 2 mCi ^177Lu (ITM Isotope Technologies Munich), the resulting mixture was heated to 95° C. for 15 min. The resulting product was analyzed by radio-TLC and radio-HPLC (column: Shim-pack GIST 5 μm 4.6*150 mm; buffer A: 0.2% formic acid H2O; buffer B: 0.1% formic acid acetonitrile; flow rate: 1 mL/min; gradient: 0-5 min: 10% B to 95% B; then 5-8 min: 95% B). The labelled products were used immediately or diluted by a PBS buffer containing freshly added 3 mg/mL ascorbate.
# All animal care and experimental procedure were performed by following the animal protocols approved by the ethics committee of China Institute of Radiation Protection. The BALB/c nude mice (Charles River, Beijing) were utilized for these studies. Mice were below 5 per cage in sterile, microisolator cages under temperature- and humidity-controlled conditions with a 12 h light/12 h dark schedule and fed irradiated rodent chow and reverse osmosis (RO) sterile water ad libitum. In preparation for tumor cell inoculations, mice were anesthetized with isoflurane (RWD Life Science Inc.) at an induction rate of 4% and maintained at a rate of 2.5% with 0.4 L oxygen delivered via precision vaporizer and a non-rebreathing apparatus. These mice received subcutaneous rear flank injections of approximately 4×10^6 AR42J cells ([…] pancreatic cancer cell line) suspended in 200 μL of phosphate-buffered saline (PBS) and Matrigel (Corning) (1/1). Xenografted tumors were allowed to grow for ~2-4 weeks post-inoculation and ranged in mass from 0.05 to 0.50 g (average tumor size, 0.20 g). […] The mice were euthanized, and the tissues and organs were excised from the animals at 4, 24 and 72 h post-injection. The tissues and organs were weighed, counted in a PerkinElmer 2480 WIZARD2 γ counter, and the percent injected dose (% ID) and % ID/g of each organ or tissue were calculated.
smiles,measurement,setting,value
"C[C@@H](O)[C@H](NC(=O)[C@@H]1CSSC[C@H](NC(=O)[C@@H](Cc2ccccc2)NC(=O)[C@H](CCCCNC(=O)c2cccc(NC(=O)N[C@@H]3CN(C4CCCCC4)c4ccccc4N(CC(=O)C(C)(C)C)C3=O)c2)NC(=O)[C@H](CCCNC(=N)N)NC(=O)CN2CCN(CC(=O)O)CCN(CC(=O)O)CCN(CC(=O)O)CC2)C(=O)N[C@@H](Cc2ccc(O)cc2)C(=O)N[C@H](Cc2c[nH]c3ccccc23)C(=O)N[C@@H](CCCCN)C(=O)N[C@@H]([C@@H](C)O)C(=O)N1)C(=O)O [Compound I-62, DOTA-R-K(Z360)-f[CYwKTC]T-OH] ({DOTA}-RK([3Abz-CO-X1])[dF]CY[dW]KTCT-OH; disulfide 4-9)",tissue to tissue ratio at 24 h,T/K Tumor/Kidney ratio,0.7
same,tissue to tissue ratio at 24 h,T/L Tumor/Liver ratio,0.3
same,tissue to tissue ratio at 24 h,T/P Tumor/Pancreas ratio,6.1
same,tissue to tissue ratio at 24 h,T/Sp Tumor/Spleen ratio,13
same,tissue to tissue ratio at 24 h,T/St Tumor/Stomach ratio,6.4
same,tissue uptake at 24 h,uptake Kidney,14.7 %ID/g
same,tissue uptake at 24 h,uptake Liver,32.4 %ID/g
same,tissue uptake at 24 h,uptake Pancreas,1.78 %ID/g
same,tissue uptake at 24 h,uptake Spleen,0.82 %ID/g
same,tissue uptake at 24 h,uptake Stomach,1.68 %ID/g
same,tissue uptake at 24 h,uptake Tumor,10.8 %ID/g
"C[C@@H](O)[C@H](NC(=O)[C@@H]1CSSC[C@H](NC(=O)[C@@H](Cc2ccccc2)NC(=O)COCCOCCNC(=O)[C@H](CCCCNC(=O)c2cccc(NC(=O)N[C@@H]3CN(C4CCCCC4)c4ccccc4N(CC(=O)C(C)(C)C)C3=O)c2)NC(=O)CN2CCN(CC(=O)O)CCN(CC(=O)O)CCN(CC(=O)O)CC2)C(=O)N[C@@H](Cc2ccc(O)cc2)C(=O)N[C@H](Cc2c[nH]c3ccccc23)C(=O)N[C@@H](CCCCN)C(=O)N[C@@H]([C@@H](C)O)C(=O)N1)C(=O)O [Compound 177Lu-I-37, metal not drawn]",tissue uptake at 4 h,% ID/g Adrenal gland,2.01 %ID/g
same,tissue uptake at 24 h,% ID/g Adrenal gland,1.43 %ID/g
same,tissue uptake at 72 h,% ID/g Adrenal gland,0.22 %ID/g
same,tissue uptake at 4 h,% ID/g Blood,0.94 %ID/g
same,tissue uptake at 24 h,% ID/g Blood,0.18 %ID/g
same,tissue uptake at 72 h,% ID/g Blood,0.05 %ID/g
same,tissue uptake at 4 h,% ID/g Fat,3.28 %ID/g
same,tissue uptake at 24 h,% ID/g Fat,0.4 %ID/g
same,tissue uptake at 72 h,% ID/g Fat,0.32 %ID/g
same,tissue uptake at 4 h,% ID/g Femur,0.83 %ID/g
same,tissue uptake at 24 h,% ID/g Femur,0.26 %ID/g
same,tissue uptake at 72 h,% ID/g Femur,0.18 %ID/g
same,tissue uptake at 4 h,% ID/g Heart,1.12 %ID/g
same,tissue uptake at 24 h,% ID/g Heart,0.4 %ID/g
same,tissue uptake at 72 h,% ID/g Heart,0.15 %ID/g
same,tissue uptake at 4 h,% ID/g Intestine,2.17 %ID/g
same,tissue uptake at 24 h,% ID/g Intestine,0.67 %ID/g
same,tissue uptake at 72 h,% ID/g Intestine,0.5 %ID/g
same,tissue uptake at 4 h,% ID/g Kidney,22.5 %ID/g
same,tissue uptake at 24 h,% ID/g Kidney,7.79 %ID/g
same,tissue uptake at 72 h,% ID/g Kidney,3.16 %ID/g
same,tissue uptake at 4 h,% ID/g Liver,11 %ID/g
same,tissue uptake at 24 h,% ID/g Liver,2.4 %ID/g
same,tissue uptake at 72 h,% ID/g Liver,2.03 %ID/g
same,tissue uptake at 4 h,% ID/g Lung,4.42 %ID/g
same,tissue uptake at 24 h,% ID/g Lung,1.38 %ID/g
same,tissue uptake at 72 h,% ID/g Lung,1.41 %ID/g
same,tissue uptake at 4 h,% ID/g Muscle,0.38 %ID/g
same,tissue uptake at 24 h,% ID/g Muscle,0.1 %ID/g
same,tissue uptake at 72 h,% ID/g Muscle,0.03 %ID/g
same,tissue uptake at 4 h,% ID/g Pancreas,4.5 %ID/g
same,tissue uptake at 24 h,% ID/g Pancreas,0.68 %ID/g
same,tissue uptake at 72 h,% ID/g Pancreas,0.19 %ID/g
same,tissue uptake at 4 h,% ID/g Spleen,0.8 %ID/g
same,tissue uptake at 24 h,% ID/g Spleen,0.2 %ID/g
same,tissue uptake at 72 h,% ID/g Spleen,0.13 %ID/g
same,tissue uptake at 4 h,% ID/g Stomach,6.95 %ID/g
same,tissue uptake at 24 h,% ID/g Stomach,2.58 %ID/g
same,tissue uptake at 72 h,% ID/g Stomach,2.13 %ID/g
same,tissue uptake at 4 h,% ID/g Tumor,48.7 %ID/g
same,tissue uptake at 24 h,% ID/g Tumor,23.1 %ID/g
same,tissue uptake at 72 h,% ID/g Tumor,21.4 %ID/g
"C[C@@H](O)[C@H](NC(=O)[C@@H]1CSSC[C@H](NC(=O)[C@@H](Cc2ccccc2)NC(=O)COCCOCCNC(=O)[C@H](CCCCNC(=O)c2cccc(NC(=O)N[C@@H]3CN(C4CCCCC4)c4ccccc4N(CC(=O)C(C)(C)C)C3=O)c2)NC(=O)COCCOCCNC(=O)CN2CCN(CC(=O)O)CCN(CC(=O)O)CCN(CC(=O)O)CC2)C(=O)N[C@@H](Cc2ccc(O)cc2)C(=O)N[C@H](Cc2c[nH]c3ccccc23)C(=O)N[C@@H](CCCCN)C(=O)N[C@@H]([C@@H](C)O)C(=O)N1)C(=O)O [Compound I-52, DOTA-OEG-K(Z360)-OEG-f[CYwKTC]T-OH]",tissue to tissue ratio at 24 h,T/K Tumor/Kidney ratio,0.9
same,tissue to tissue ratio at 24 h,T/L Tumor/Liver ratio,2.2
same,tissue to tissue ratio at 24 h,T/P Tumor/Pancreas ratio,14
same,tissue to tissue ratio at 24 h,T/Sp Tumor/Spleen ratio,36
same,tissue to tissue ratio at 24 h,T/St Tumor/Stomach ratio,2.4
same,tissue uptake at 24 h,uptake Kidney,14 %ID/g
same,tissue uptake at 24 h,uptake Liver,5.7 %ID/g
same,tissue uptake at 24 h,uptake Pancreas,0.9 %ID/g
same,tissue uptake at 24 h,uptake Spleen,0.3 %ID/g
same,tissue uptake at 24 h,uptake Stomach,5.1 %ID/g
same,tissue uptake at 24 h,uptake Tumor,12.4 %ID/g
